Laboratory results published in paper PMC6178561.
Where two headings read alike, the source gives them in different places. Blank lines part the entries; values can stand above or below the molecule they belong to.

Key:
[1] = target: HA-InR^intra (intracellular domain of insulin receptor including the kinase domain) (Drosophila) (UniProt P09208); assay: proximity ligation
[2] = target: HA-InR^intra (intracellular domain of insulin receptor including the kinase domain) (Drosophila) (UniProt P09208); assay: proximity ligation; remark: listed apart in the source

Sequence of UniProt P09208 (P09208 1086-2144): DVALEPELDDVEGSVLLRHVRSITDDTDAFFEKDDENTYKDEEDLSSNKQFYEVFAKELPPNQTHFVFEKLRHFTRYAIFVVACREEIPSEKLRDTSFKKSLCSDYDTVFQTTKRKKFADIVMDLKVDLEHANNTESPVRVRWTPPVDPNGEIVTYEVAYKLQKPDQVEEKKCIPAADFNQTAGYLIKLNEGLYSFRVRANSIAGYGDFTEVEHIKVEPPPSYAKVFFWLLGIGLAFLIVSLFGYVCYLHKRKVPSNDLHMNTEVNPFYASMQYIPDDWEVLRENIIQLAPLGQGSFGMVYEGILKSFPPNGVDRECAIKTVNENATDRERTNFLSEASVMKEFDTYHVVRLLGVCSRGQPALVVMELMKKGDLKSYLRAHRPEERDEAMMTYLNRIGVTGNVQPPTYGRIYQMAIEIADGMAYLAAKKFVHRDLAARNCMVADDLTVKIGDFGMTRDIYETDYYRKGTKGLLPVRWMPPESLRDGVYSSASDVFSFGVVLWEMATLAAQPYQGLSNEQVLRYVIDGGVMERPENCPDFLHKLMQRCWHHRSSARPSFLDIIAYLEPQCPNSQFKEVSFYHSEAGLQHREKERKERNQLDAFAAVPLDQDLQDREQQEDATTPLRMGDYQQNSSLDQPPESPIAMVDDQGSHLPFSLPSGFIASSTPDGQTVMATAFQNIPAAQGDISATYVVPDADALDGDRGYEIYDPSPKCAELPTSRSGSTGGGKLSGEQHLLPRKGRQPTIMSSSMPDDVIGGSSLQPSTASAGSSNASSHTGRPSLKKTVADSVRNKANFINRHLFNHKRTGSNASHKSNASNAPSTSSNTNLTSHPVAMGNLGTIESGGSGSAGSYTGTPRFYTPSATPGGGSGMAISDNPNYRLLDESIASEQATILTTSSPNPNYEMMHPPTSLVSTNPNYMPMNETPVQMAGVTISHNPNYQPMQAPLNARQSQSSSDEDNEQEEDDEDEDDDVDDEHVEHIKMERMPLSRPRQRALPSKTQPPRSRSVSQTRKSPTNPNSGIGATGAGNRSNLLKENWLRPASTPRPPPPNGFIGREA

- PLA foci per cell (average) (PLA foci per cell) [1]: 12.8
- percent of cells with PLA signal [1]: 90.9%
- percent of cells with moderate PLA signals (11-30 foci) [1]: 41.8%
- percent of cells with strong PLA signals (>30 foci) [1]: 12.7%
- percent of cells with weak PLA signals (≤10 foci) [1]: 36.4%
Molecule: Myc-Hsp83 (heat shock protein 83) (from UniProt P02828 1-717) (natural protein)

- percent of cells with PLA signal [2]: 86.8%
- percent of cells with moderate PLA signals [2]: 31.4%
- percent of cells with strong PLA signals [2]: 4.1%
- percent of cells with weak PLA signals [2]: 51.3%
B1: Myc-Cdc37 (cell division cycle 37) (natural protein)
chain: MVDYSKWKNIEISDDEDDTHPNIDTPSLFRWRHQARVERMAEMDHEKDELKKKRQSYQARLMDVKERISKKDGDEEALKKELEKIEAEGKELDRIESEMIKKEKKTPWNVDTISKPGFEKTVINKKAGRKPDENLSEEEREQRMKQFVKENEKLCQQYGMLRKYDDSKRFLQEHLHLVGEETANYLVIWSINLEMEEKHELMAHVAHQCICMQYILELAKQLDVDPRACVSSFFSKIQHCHPEYRAQFDSEIEGFKGRIQKRAQEKIQEAIAQAEEEERKERLGPGGLDPADVFESLPDELKACFESRDVELLQKTIAAMPVDVAKLHMKRCVDSGLWVPNAADLEGDKKEEDDSDDVAGGEEKTDDAKSESAAKEEPIYTGVSTEDVD
